The term Kd denotes a measure of binding affinity in units of concentration.

Consider two molecules from publication PMC8103107, “Myeloid‐resident neuropilin‐1 promotes choroidal neovascularization while mitigating inflammation” (EMBO Molecular Medicine, 2021).

In this experiment the target is T1, recombinant NRP1-derived trap consisting of the extracellular domain of NRP1 (UniProt O14786 22-856).
T1 construct: also called soluble NRP1; soluble receptor Neuropilin-1; source: purified recombinant
T1 sequence (looked up): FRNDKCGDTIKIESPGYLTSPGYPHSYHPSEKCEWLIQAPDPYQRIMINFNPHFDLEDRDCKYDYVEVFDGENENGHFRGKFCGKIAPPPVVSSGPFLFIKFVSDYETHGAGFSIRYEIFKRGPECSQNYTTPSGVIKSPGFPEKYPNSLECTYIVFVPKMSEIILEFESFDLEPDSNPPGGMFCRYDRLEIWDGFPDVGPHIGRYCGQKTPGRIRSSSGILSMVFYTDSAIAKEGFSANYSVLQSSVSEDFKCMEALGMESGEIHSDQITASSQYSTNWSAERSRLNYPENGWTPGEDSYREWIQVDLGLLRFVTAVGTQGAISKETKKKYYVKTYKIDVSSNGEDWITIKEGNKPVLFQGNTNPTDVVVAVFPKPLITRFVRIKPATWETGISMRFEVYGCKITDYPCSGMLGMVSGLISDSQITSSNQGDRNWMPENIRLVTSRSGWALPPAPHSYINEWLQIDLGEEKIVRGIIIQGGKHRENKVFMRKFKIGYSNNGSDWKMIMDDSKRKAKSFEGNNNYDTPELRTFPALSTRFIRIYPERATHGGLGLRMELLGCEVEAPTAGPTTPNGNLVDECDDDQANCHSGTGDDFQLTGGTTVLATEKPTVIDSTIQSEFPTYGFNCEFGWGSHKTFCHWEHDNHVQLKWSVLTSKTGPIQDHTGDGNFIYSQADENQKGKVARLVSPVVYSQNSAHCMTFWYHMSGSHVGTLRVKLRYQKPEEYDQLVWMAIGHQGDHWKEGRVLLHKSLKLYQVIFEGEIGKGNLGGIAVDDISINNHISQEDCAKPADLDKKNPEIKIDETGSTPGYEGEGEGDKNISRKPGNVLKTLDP
Put plainly: SPR; Biacore T200; trap immobilised by amine coupling on a CM4 chip (100-150 RU); SEMA3A or VEGF-A injected at 12.5-100 nM, 40 ul/min, PBS with 0.025% (v/v) Tween-20; global fit to a one-site Langmuir binding model. The following applies: both partners purified.

B1: Semaphorin 3A (ligand, UniProt Q14563 21-771, looked up)
chain: NYQNGKNNVPRLKLSYKEMLESNNVITFNGLANSSSYHTFLLDEERSRLYVGAKDHIFSFDLVNIKDFQKIVWPVSYTRRDECKWAGKDILKECANFIKVLKAYNQTHLYACGTGAFHPICTYIEIGHHPEDNIFKLENSHFENGRGKSPYDPKLLTASLLIDGELYSGTAADFMGRDFAIFRTLGHHHPIRTEQHDSRWLNDPKFISAHLISESDNPEDDKVYFFFRENAIDGEHSGKATHARIGQICKNDFGGHRSLVNKWTTFLKARLICSVPGPNGIDTHFDELQDVFLMNFKDPKNPVVYGVFTTSSNIFKGSAVCMYSMSDVRRVFLGPYAHRDGPNYQWVPYQGRVPYPRPGTCPSKTFGGFDSTKDLPDDVITFARSHPAMYNPVFPMNNRPIVIKTDVNYQFTQIVVDRVDAEDGQYDVMFIGTDVGTVLKVVSIPKETWYDLEEVLLEEMTVFREPTAISAMELSTKQQQLYIGSTAGVAQLPLHRCDIYGKACAECCLARDPYCAWDGSACSRYFPTAKRRTRRQDIRNGDPLTHCSDLHHDNHHGHSPEERIIYGVENSSTFLECSPKSQRALVYWQFQRRNEERKEEIRVDDHIIRTDQGLLLRSLQQKDSGNYLCHAVEHGFIQTLLKVTLEVIDTEHLEELLHKDDDGDGSKTKEMSNSMTPSQKVWYRDFMQLINHPNLNTMDEFCEQVWKRDRKQRRQRPGHTPGNSNKWKHLQENKKGRNRRTHEFERAPRSV
notes: Semaphorin 3A (SEMA3A), injected as analyte in SPR; also called SEMA3A; Sema3A
Consider B1, for which the Kd was 0.67 nM.

B2: vascular endothelial growth factor A (ligand)
chain: APMAEGGGQNHHEVVKFMDVYQRSYCHPIETLVDIFQEYPDEIEYIFKPSCVPLMRCGGCCNDEGLECVPTEESNITMQIMRIKPHQGQHIGEMSFLQHNKCECRPKKDRARQENPCGPCSERRKHLFVQDPQTCKCSCKNTDSRCKARQLELNERTCRCDKPRR
modifications: Assumed to be VEGF165, the customary recombinant product, because the isoform is not printed. Mature residues 1-165 equal entry residues 207-395 with the exon 6a region 321-345 replaced by the …
B2: the Kd came out at 4.32 nM.
